This note sets out measurements from patent US20220298260A1 (MYTHIC THERAPEUTICS, published 2022).

First the molecules themselves.
B1: MYT4509 (antibody, V domains shown)
VH: EVQLVESGGGLVQPGGSLRLSCAASGFNIRTQSIHWVRQAPGKGLEWIGDIFPIDGITDYADSVKGRFTISADTSKNTAYLQMNSLRAEDTAVYYCARGSWSWPSGMDYYLDYWGQGTLVTVSS
VL: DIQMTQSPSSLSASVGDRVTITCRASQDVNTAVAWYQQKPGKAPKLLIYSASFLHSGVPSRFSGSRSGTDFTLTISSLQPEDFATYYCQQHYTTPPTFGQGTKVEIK
notes: IgG
B2: MYT4516 (antibody, V domains shown)
VH: B1 VH
VL: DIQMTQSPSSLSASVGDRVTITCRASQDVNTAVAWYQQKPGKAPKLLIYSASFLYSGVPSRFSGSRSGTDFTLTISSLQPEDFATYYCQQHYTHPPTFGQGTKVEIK
notes: IgG
B3: MYT4512 (antibody, V domains shown)
VH: B1 VH
VL: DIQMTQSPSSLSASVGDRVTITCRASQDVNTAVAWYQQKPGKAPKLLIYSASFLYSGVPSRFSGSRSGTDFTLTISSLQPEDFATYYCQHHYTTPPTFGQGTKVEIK
notes: IgG
B4: MYT4519 (antibody, V domains shown)
VH: B1 VH
VL: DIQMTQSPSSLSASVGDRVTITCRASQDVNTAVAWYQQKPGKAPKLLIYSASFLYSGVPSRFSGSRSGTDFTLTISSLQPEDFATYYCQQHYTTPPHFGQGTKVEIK
notes: IgG
B5: MYT4510 (antibody, V domains shown)
VH: B1 VH
VL: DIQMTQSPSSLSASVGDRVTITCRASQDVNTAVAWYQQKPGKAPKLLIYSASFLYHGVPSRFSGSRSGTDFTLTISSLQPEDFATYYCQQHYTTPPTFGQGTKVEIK
notes: IgG
B6: MYT4517 (antibody, V domains shown)
VH: B1 VH
VL: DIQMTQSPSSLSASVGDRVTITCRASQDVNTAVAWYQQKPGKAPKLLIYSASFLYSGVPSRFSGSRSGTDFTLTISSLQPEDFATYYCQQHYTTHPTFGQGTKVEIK
notes: IgG
B7: MYT4518 (antibody, V domains shown)
VH: B1 VH
VL: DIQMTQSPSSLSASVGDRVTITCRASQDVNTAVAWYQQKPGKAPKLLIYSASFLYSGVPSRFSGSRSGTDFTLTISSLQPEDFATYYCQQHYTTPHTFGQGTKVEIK
notes: IgG
B8: MYT4511 (antibody, V domains shown)
VH: B1 VH
VL: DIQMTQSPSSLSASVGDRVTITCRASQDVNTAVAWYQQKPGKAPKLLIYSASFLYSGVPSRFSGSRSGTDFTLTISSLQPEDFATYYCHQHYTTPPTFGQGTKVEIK
notes: IgG
B9: MYT4513 (antibody, V domains shown)
VH: B1 VH
VL: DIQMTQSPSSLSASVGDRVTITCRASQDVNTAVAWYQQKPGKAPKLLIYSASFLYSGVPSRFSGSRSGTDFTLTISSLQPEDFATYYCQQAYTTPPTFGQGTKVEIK
notes: IgG
B10: MYT4514 (antibody, V domains shown)
VH: B1 VH
VL: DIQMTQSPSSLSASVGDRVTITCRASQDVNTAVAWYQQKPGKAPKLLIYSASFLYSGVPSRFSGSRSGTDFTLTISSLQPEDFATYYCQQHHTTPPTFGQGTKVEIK
notes: IgG
B11: MYT4515 (antibody, V domains shown)
VH: B1 VH
VL: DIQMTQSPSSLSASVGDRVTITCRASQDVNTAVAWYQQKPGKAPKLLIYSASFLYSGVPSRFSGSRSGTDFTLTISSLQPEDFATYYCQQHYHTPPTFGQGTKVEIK
notes: IgG
B12: MYT2185 (antibody, V domains shown)
VH: EVQLVESGGGVVQPGRSLRLSCSASHFTFSGYGLSWVRQAPGKGLEWVAMISSGGSYTYYADSVKGRFAISRDNAKNTLFLQMDSLRPEDTGVYFCARHGDDPAWFAYWGQGTPVTVSS
VL: DIQLTQSPSSLSASVGDRVTITCSVSSSISSNNLHWYQQKPGKAPKPWIYGTSNLASGVPSRFSGSGSGTDYTFTISSLQPEDIATYYCQQWSSYPYMYTFGQGTKVEIK
notes: IgG
B13: MYT2216 (antibody, V domains shown)
VH: B12 VH with H26G, D101H
VL: B12 VL
notes: IgG
B14: MYT4521 (antibody, V domains shown)
VH: B12 VH with H26G
VL: B12 VL with S28H
notes: IgG
B15: MYT2206 (antibody, V domains shown)
VH: B12 VH with H26G, A61H
VL: B12 VL
notes: IgG
B16: MYT2186 (antibody, V domains shown)
VH: B12 VH with H26G, F27H
VL: B12 VL
notes: IgG
B17: MYT2204 (antibody, V domains shown)
VH: B12 VH with H26G, Y59H
VL: B12 VL
notes: IgG
B18: MYT2202 (antibody, V domains shown)
VH: B12 VH with H26G, Y57H
VL: B12 VL
notes: IgG
B19: MYT2192 (antibody, V domains shown)
VH: B12 VH with H26G, G33H
VL: B12 VL
notes: IgG
B20: MYT4523 (antibody, V domains shown)
VH: B12 VH with H26G
VL: B12 VL with S30H
notes: IgG
B21: MYT2199 (antibody, V domains shown)
VH: B12 VH with H26G, G54H
VL: B12 VL
notes: IgG
B22: MYT2203 (antibody, V domains shown)
VH: B12 VH with H26G, T58H
VL: B12 VL
notes: IgG
B23: MYT2189 (antibody, V domains shown)
VH: B12 VH with H26G, S30H
VL: B12 VL
notes: IgG
B24: MYT2210 (antibody, V domains shown)
VH: B12 VH with H26G, K65H
VL: B12 VL
notes: IgG
B25: MYT2209 (antibody, V domains shown)
VH: B12 VH with H26G, V64H
VL: B12 VL
notes: IgG
B26: MYT2211 (antibody, V domains shown)
VH: B12 VH with H26G, G66H
VL: B12 VL
notes: IgG
B27: MYT4524 (antibody, V domains shown)
VH: B12 VH with H26G
VL: B12 VL with S31H
notes: IgG
B28: MYT2208 (antibody, V domains shown)
VH: B12 VH with H26G, S63H
VL: B12 VL
notes: IgG
B29: MYT4522 (antibody, V domains shown)
VH: B12 VH with H26G
VL: B12 VL with I29H
notes: IgG
B30: MYT2190 (antibody, V domains shown)
VH: B12 VH with H26G, G31H
VL: B12 VL
notes: IgG
B31: MYT2207 (antibody, V domains shown)
VH: B12 VH with H26G, D62H
VL: B12 VL
notes: IgG
B32: MYT2223 (antibody, V domains shown)
VH: B12 VH with H26G, Y108H
VL: B12 VL
notes: IgG
B33: MYT2187 (antibody, V domains shown)
VH: B12 VH with H26G, T28H
VL: B12 VL
notes: IgG
B34: MYT4520 (antibody, V domains shown)
VH: B12 VH with H26G
VL: B12 VL with S27H
notes: IgG
B35: MYT4526 (antibody, V domains shown)
VH: B12 VH with H26G
VL: B12 VL with N33H
notes: IgG
B36: MYT2220 (antibody, V domains shown)
VH: B12 VH with H26G, W105H
VL: B12 VL
notes: IgG
B37: MYT2218 (antibody, V domains shown)
VH: B12 VH with H26G, P103H
VL: B12 VL
notes: IgG
B38: MYT2222 (antibody, V domains shown)
VH: B12 VH with H26G, A107H
VL: B12 VL
notes: IgG
B39: MYT2214 (antibody, V domains shown)
VH: B12 VH with H26G, H99A
VL: B12 VL
notes: IgG
B40: MYT2205 (antibody, V domains shown)
VH: B12 VH with H26G, Y60H
VL: B12 VL
notes: IgG
B41: MYT2201 (antibody, V domains shown)
VH: B12 VH with H26G, S56H
VL: B12 VL
notes: IgG
B42: MYT2191 (antibody, V domains shown)
VH: B12 VH with H26G, Y32H
VL: B12 VL
notes: IgG
B43: MYT2193 (antibody, V domains shown)
VH: B12 VH with H26G, L34H
VL: B12 VL
notes: IgG
B44: MYT2198 (antibody, V domains shown)
VH: B12 VH with H26G, S53H
VL: B12 VL
notes: IgG
B45: MYT2188 (antibody, V domains shown)
VH: B12 VH with H26G, F29H
VL: B12 VL
notes: IgG

Changes are numbered by the printed parent chain.

The target of this experiment is T1, FOLR1 (R&D Systems, Cat #5646-FR) (human, UniProt P15328 25-233).
T1 construct: Bought soluble protein; also called Folate Receptor 1
T1 sequence (P15328 25-233 limits assumed): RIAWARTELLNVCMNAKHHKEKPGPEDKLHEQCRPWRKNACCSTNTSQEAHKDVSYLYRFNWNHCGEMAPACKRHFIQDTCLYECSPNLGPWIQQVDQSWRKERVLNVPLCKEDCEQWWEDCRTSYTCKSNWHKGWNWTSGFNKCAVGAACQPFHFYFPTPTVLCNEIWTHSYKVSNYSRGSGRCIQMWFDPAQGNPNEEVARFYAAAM
The experiment in a line: BLI, IgG on anti-human Fc sensor, 50 nM FOLR1. On the technique in general: BLI is a label-free optical method that tracks binding on a fibre tip over time.
As for B1, the binding result is “binds”.
Next, B2: “binds”.
Next, B3: “binds”; B4: “binds”; B5: “binds”.
Take B6: the binding result was “binds”.
On to B7, for which the binding result is “binds”.
Take B8: the binding result is recorded as “binds”.
For the molecule B9, the binding result is on record as “binds”.
For the molecule B10, the binding result is given as “binds”.
To B11 belongs “binds”; to B12, “binds”; to B13, “binds”.
In the case of B14, the binding result is listed as “binds”.
As to B15, the binding result is reported as “binds”.
Regarding B16, the binding result is “binds”.
In the case of B17, the binding result is listed as “binds”.
Turning to B18, the binding result was “binds”.
B19: the binding result is given as “binds”.
For B20, the binding result is “binds”.
Next, B21: “binds”.
B22: the binding result is reported as “binds”.
Take B23: the binding result is recorded as “binds”.
Turning to B24, the binding result is given as “binds”.
As for B25, the binding result is “binds”.
Take B26: the binding result was “binds”.
Next, B27: “binds”; B28: “binds”; B29: “binds”.
Take B30: the binding result is listed as “binds”.
For B31, the binding result is given as “binds”.
With B32, the binding result is listed as “binds”.
Next, B33: “binds”; B34: “binds”; B35: “binds”.
Next, B36: “binds”.
Consider B37, for which the binding result is “binds”.
On to B38, for which the binding result was “binds”.
For B39, the binding result was “binds”.
Take B40: the binding result is “binds”.
On to B41, for which the binding result was “binds”.
As to B42, the binding result is “binds”.
As to B43, the binding result is “binds”.
To B44 belongs “binds”.
As for B45, the binding result is “binds”.
